Patent US20120264616A1

Biological target: receptor for IFN λ expressed by reporter HL116 cells (UniProt Q8IU57)
Test: cell-based or functional assay

Sequence of UniProt Q8IU57 (Q8IU57 21-520 limits assumed): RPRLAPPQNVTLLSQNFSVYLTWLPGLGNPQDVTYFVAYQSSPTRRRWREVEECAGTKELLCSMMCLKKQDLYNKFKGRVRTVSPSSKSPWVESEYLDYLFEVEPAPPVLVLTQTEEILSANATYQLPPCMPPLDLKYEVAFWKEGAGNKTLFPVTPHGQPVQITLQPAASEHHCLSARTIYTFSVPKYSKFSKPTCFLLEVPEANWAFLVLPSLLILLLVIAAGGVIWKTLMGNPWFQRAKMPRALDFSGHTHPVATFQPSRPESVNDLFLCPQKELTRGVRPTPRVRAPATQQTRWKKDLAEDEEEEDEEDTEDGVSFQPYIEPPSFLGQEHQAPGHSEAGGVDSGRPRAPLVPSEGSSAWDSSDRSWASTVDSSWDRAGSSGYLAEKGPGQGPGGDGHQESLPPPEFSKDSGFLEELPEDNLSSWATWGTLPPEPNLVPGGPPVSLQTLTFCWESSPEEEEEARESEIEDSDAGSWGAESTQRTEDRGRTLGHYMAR

Work on “interferon lambda (IFN λ) secreted into the culture supernatant by 293T cell clones transduced with parental lentiviral particles (ligand)” yielded a Luc exp 1, clone 1 of 68.2, a Luc exp 1, clone 2 of 73.2 and a Luc exp 1, clone 3 of 80.8. The Luc exp 1, clone 4 was 84.3, the Luc exp 1, clone 5 was 100 and the Luc exp 1, clone 6 was 77.7. It also gave a Luc exp 1, clone 7 of 90.9, a Luc exp 1, clone 8 of 88.9 and a Luc exp 1, clone 9 of 78.7. For the same substance, the Luc exp 1, clone 10 was 89.8, the Luc exp 1, clone 11 was 95.4 and the Luc exp 1, clone 12 was 77.2. It also gave a Luc exp 1, clone 13 of 94.4, a Luc exp 1, clone 14 of 89.2 and a Luc exp 1, clone 15 of 87.6. The Luc exp 1, clone 16 was 81.4, the Luc exp 1, clone 17 was 79.9 and the Luc exp 2, clone 1 was 68.8. The Luc exp 2, clone 2 was 66.3, the Luc exp 2, clone 3 was 87.3 and the Luc exp 2, clone 4 was 88.1. It also gave a Luc exp 2, clone 5 of 97.8, a Luc exp 2, clone 6 of 88.3 and a Luc exp 2, clone 7 of 95.1. It also gave a Luc exp 2, clone 8 of 107, a Luc exp 2, clone 9 of 99.2 and a Luc exp 2, clone 10 of 86.9. The Luc exp 2, clone 11 was 75.8, the Luc exp 2, clone 12 was 91.6 and the Luc exp 2, clone 13 was 94.8. It also gave a Luc exp 2, clone 14 of 72.9, a Luc exp 2, clone 15 of 87.8 and a Luc exp 2, clone 16 of 77.2. The Luc exp 2, clone 17 was 71.7, the Luciferase average, clone 1 was 68.2 and the Luciferase average, clone 2 was 69.7. The Luciferase average, clone 3 was 84, the Luciferase average, clone 4 was 86.3 and the Luciferase average, clone 5 was 99. It also gave a Luciferase average, clone 6 of 83, a Luciferase average, clone 7 of 93 and a Luciferase average, clone 8 of 97.9. For the same substance, the Luciferase average, clone 9 was 89, the Luciferase average, clone 10 was 88.3 and the Luciferase average, clone 11 was 85.6. For the same substance, the Luciferase average, clone 12 was 84.4, the Luciferase average, clone 13 was 94.6 and the Luciferase average, clone 14 was 81.1. For the same substance, the Luciferase average, clone 15 was 87.7, the Luciferase average, clone 16 was 79.3 and the Luciferase average, clone 17 was 75.8.
